In publication PMC5493754, “Myosin 7 and its adaptors link cadherins to actin” (Nature Communications, 2017) one finds Kd data, which are given here for four molecules.

A word on the Kd: it is the free concentration of one partner at which half of the binding sites on the other are occupied at equilibrium, for simple one-to-one binding. A high value points to a looser complex.

To fix the notation:
B1: Harmonin-a PDZ2-end (domain or fragment, human, UniProt Q9Y6N9-1 194-552, looked up)
chain: GVRGSLGSPGNRENKEKKVFISLVGSRGLGCSISSGPIQKPGIFISHVKPGSLSAEVGLEIGDQIVEVNGVDFSNLDHKEAVNVLKSSRSLTISIVAAAGRELFMTDRERLAEARQRELQRQELLMQKRLAMESNKILQEQQEMERQRRKEIAQKAAEENERYRKEMEQIVEEEEKFKKQWEEDWGSKEQLLLPKTITAEVHPVPLRKPKYDQGVEPELEPADDLDGGTEEQGEQDFRKYEEGFDPYSMFTPEQIMGKDVRLLRIKKEGSLDLALEGGVDSPIGKVVVSAVYERGAAERHGGIVKGDEIMAINGKIVTDYTLAEAEAALQKAWNQGGDWIDLVVAVCPPKEYDDELTFF
notes: Harmonin-a1 (USH1C), human, residues 194-552 of UniProt Q9Y6N9-1; also called PDZ2-end (isoA); source: E. coli BL21 (DE3) Rosetta, purified (Glutathione Sepharose 4B, size-exclusion chromatography)

Some results are limits rather than exact numbers.

What all share (conditions): both partners purified
For one assay, the target named is T1, YFP-FL-harmonin-ΔCter (human, UniProt Q9Y6N9-1 1-542).
T1 construct: Harmonin-a1 (USH1C), human, residues 1-542 of UniProt Q9Y6N9-1; also called ^YFPFL ΔCter; source: E. coli BL21 (DE3) Rosetta, purified (Glutathione Sepharose 4B, size-exclusion chromatography)
T1 sequence (looked up): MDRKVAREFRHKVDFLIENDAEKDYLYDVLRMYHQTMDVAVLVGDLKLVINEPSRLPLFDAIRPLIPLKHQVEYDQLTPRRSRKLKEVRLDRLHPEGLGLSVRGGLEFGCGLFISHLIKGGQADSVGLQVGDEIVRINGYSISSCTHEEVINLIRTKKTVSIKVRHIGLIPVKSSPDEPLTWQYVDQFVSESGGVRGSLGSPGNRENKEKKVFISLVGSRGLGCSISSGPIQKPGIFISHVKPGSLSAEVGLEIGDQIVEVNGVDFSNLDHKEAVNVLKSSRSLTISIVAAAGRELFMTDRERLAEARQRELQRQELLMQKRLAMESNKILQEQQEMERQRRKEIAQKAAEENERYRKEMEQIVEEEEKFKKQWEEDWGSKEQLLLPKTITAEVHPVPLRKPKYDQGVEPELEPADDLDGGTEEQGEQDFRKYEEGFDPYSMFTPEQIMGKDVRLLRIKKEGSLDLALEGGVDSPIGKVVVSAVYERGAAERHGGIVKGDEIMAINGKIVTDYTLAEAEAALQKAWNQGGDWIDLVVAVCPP
In words: MST; as a1 but 150 mM NaCl (for FL-Harmonin-a); YFP-fused partner constant at 100 nM, non-fluorescent protein titrated.

The target of a further assay is T2, YFP-Myosin 7a MF2 (human, UniProt Q13402-1 1702-2215).
T2 construct: Myosin 7a, human, MF2, residues 1702-2215 of UniProt Q13402-1; pET14-YFP vector; also called ^YFPM7a MF2; source: E. coli (BL21-AI, BL21 (DE3) Rosetta or BL21-Gold (DE3)), purified (Histrap, CaptoQ, gel filtration)
T2 sequence (looked up): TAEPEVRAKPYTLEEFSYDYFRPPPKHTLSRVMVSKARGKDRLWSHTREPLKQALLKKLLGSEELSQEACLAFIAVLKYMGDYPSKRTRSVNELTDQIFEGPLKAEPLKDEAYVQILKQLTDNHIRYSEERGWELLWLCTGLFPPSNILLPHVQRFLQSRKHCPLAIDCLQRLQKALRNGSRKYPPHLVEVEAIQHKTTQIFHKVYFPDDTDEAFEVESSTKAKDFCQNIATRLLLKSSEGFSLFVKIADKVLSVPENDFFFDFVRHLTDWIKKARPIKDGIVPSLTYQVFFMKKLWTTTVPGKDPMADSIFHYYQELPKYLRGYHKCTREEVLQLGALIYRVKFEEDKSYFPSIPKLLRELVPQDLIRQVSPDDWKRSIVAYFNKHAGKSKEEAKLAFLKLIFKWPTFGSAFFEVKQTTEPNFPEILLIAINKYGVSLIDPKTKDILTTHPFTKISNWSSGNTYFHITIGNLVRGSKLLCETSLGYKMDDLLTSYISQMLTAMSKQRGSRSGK
In words: MST; YFP-fused partner constant at 100 nM, non-fluorescent protein titrated (16 two-fold dilutions); 20 mM Hepes pH 7.0, 100 mM NaCl, 1 mM EGTA, 0.5 mM TCEP, 0.05% Tween 20; Monolith NT.115.

Assay [1] has as its target T3, YFP-Myosin 7b MF2 (human, UniProt Q6PIF6 1605-2116).
T3 construct: Myosin 7b, human, MF2, residues 1605-2116 of UniProt Q6PIF6; pET14-YFP vector; also called ^YFPM7b MF2; source: E. coli (BL21-AI, BL21 (DE3) Rosetta or BL21-Gold (DE3)), purified (Histrap, CaptoQ, gel filtration)
T3 sequence (looked up): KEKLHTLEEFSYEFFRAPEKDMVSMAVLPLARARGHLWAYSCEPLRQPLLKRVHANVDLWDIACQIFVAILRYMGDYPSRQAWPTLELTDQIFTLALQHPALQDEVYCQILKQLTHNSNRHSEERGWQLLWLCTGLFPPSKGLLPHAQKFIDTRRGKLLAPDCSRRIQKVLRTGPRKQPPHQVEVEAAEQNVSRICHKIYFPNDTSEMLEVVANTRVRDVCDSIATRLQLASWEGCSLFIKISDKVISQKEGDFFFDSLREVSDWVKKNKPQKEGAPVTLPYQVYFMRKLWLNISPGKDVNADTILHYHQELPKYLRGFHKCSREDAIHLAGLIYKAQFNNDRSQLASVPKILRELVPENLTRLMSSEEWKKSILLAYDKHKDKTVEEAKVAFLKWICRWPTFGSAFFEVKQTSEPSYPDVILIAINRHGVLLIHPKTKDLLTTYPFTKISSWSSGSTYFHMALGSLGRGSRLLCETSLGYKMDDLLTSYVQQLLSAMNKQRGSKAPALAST
The assay is described as above.

Assay [2] concerns the target T4, Harmonin NPDZ1 (GST removed, as used in ITC) (human, UniProt Q9Y6N9-1 1-197).
T4 construct: Harmonin-a1 (USH1C), human, residues 1-197 of UniProt Q9Y6N9-1; not shown: GST, N-terminal, cleaved
T4 sequence (looked up): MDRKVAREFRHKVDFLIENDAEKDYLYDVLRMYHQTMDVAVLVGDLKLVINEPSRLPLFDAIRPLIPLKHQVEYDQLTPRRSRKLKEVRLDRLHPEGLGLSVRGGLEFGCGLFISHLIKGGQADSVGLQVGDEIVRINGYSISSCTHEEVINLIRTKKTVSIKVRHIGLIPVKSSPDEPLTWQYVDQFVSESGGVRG
Nature of the assay: ITC; Microcal iTC200, 10 °C; 20 mM HEPES pH 7.0, 100 mM NaCl, 0.5 mM TCEP, 1 mM EGTA; single binding site model; GST removed from harmonin. For orientation: In ITC the heat of successive injections is recorded.

For another assay, the target named is T5, Myosin 7b MF2 (human, UniProt Q6PIF6 1605-2116).
T5 construct: also called M7b MF2; Myo7b MF2; source: E. coli (BL21-AI, BL21 (DE3) Rosetta or BL21-Gold (DE3)), purified (Histrap, CaptoQ, gel filtration)
T5 sequence (looked up): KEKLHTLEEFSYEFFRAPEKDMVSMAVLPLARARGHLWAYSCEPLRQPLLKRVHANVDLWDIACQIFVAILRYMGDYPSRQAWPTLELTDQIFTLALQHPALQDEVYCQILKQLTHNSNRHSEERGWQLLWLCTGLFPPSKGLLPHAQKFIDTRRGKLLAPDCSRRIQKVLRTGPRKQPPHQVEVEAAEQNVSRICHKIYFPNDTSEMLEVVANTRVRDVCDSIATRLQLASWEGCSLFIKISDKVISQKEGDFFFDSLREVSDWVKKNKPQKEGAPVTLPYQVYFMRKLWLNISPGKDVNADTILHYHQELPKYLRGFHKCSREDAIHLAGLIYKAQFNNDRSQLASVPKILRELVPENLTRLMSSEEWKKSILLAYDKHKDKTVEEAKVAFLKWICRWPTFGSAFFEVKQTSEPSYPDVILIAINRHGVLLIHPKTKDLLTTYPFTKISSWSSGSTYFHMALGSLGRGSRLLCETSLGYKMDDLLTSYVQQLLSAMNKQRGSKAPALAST
Described as above.

In the next assay the target is T6, Myosin 7a MF2 (human, UniProt Q13402-1 1702-2215).
T6 construct: Myosin 7a, human, C-terminal MyTH4-FERM domain (MF2), residues 1702-2215 of UniProt Q13402-1; Thrombin site of the vector replaced by an SSG linker; also called M7a MF2; Myo7a MF2; source: E. coli (BL21-AI, BL21 (DE3) Rosetta or BL21-Gold (DE3)), purified (Histrap, CaptoQ, gel filtration)
T6 sequence (looked up): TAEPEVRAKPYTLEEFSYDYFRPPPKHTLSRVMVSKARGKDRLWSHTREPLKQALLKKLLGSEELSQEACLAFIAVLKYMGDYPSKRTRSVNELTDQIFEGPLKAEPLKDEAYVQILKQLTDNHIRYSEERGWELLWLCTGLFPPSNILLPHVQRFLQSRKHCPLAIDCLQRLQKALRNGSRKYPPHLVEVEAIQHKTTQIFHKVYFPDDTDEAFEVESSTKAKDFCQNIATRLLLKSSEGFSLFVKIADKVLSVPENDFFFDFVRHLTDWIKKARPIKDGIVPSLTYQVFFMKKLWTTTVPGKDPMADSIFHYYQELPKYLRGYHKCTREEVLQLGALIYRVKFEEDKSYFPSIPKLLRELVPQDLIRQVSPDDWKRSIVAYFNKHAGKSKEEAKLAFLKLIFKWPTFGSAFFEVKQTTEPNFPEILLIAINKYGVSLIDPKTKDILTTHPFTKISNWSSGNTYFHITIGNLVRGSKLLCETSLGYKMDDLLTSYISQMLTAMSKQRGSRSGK
Described as above.

Assay [3] concerns the target T3, YFP-Myosin 7b MF2. Nature of the assay: MST; YFP-fused partner constant at 100 nM, non-fluorescent protein titrated (16 two-fold dilutions); 20 mM Hepes pH 7.0, 100 mM NaCl, 1 mM EGTA, 0.5 mM TCEP, 0.05% Tween 20; Monolith NT.115. This is another data set of the same source.
The target in the assay “Harmonin-a PDZ2-end” is B1. Described as above.

With B1, the Kd was 2000 nM in the assay with YFP-FL-harmonin-ΔCter, 1880 nM with YFP-Myosin 7a MF2 and 2790 ± 790 nM in the assay with YFP-Myosin 7b MF2 [1].

B2: Harmonin-a PDZ3c (GST removed, as used in ITC and crystallisation) (domain or fragment, human, UniProt Q9Y6N9-1 428-552, looked up)
chain: QDFRKYEEGFDPYSMFTPEQIMGKDVRLLRIKKEGSLDLALEGGVDSPIGKVVVSAVYERGAAERHGGIVKGDEIMAINGKIVTDYTLAEAEAALQKAWNQGGDWIDLVVAVCPPKEYDDELTFF
notes: Harmonin-a1 (USH1C), human, residues 428-552 of UniProt Q9Y6N9-1; also called PDZ3c (isoA); HarA PDZ3c; not shown: GST, N-terminal, cleaved
For B2, the values for the Kd (in assay [2]; in the assay with Myosin 7b MF2; with Myosin 7a MF2) were 10000 ± 3000 nM, 1400 ± 600 nM and 1000 nM, respectively.

B3: Harmonin-a PDZ3c F551V-F552V (domain or fragment, human, UniProt Q9Y6N9-1 428-552, looked up)
chain: QDFRKYEEGFDPYSMFTPEQIMGKDVRLLRIKKEGSLDLALEGGVDSPIGKVVVSAVYERGAAERHGGIVKGDEIMAINGKIVTDYTLAEAEAALQKAWNQGGDWIDLVVAVCPPKEYDDELTVV
notes: Harmonin-a1 (USH1C), human, residues 428-552 of UniProt Q9Y6N9-1; also called PDZ3c (isoA) F551V-F552V; source: E. coli BL21 (DE3) Rosetta, purified similarly as wild type
With B3, the Kd in the assay with YFP-Myosin 7b MF2 [3] was 68000 nM; in the assay with YFP-Myosin 7b MF2 [1], > 100000 nM.

B4: YFP-Harmonin NPDZ1 (domain or fragment, human, UniProt Q9Y6N9-1 1-197, looked up)
chain: MDRKVAREFRHKVDFLIENDAEKDYLYDVLRMYHQTMDVAVLVGDLKLVINEPSRLPLFDAIRPLIPLKHQVEYDQLTPRRSRKLKEVRLDRLHPEGLGLSVRGGLEFGCGLFISHLIKGGQADSVGLQVGDEIVRINGYSISSCTHEEVINLIRTKKTVSIKVRHIGLIPVKSSPDEPLTWQYVDQFVSESGGVRG
notes: Harmonin-a1 (USH1C), human, residues 1-197 of UniProt Q9Y6N9-1; also called ^YFPNPDZ1; source: E. coli BL21 (DE3) Rosetta, purified (Glutathione Sepharose 4B, size-exclusion chromatography)
In the assay with Harmonin-a PDZ2-end, B4 showed an equilibrium dissociation constant (Kd) of 4200 nM.
